Test results taken from paper PMC10786891, “Massively parallel profiling of RNA-targeting CRISPR-Cas13d”.
Positions count from the first letter of the chain named. In names and notes the source's numbering stands.

T1: EsCas13d, nuclease-dead (Eubacterium siraeum, UniProt B0MS50, R295A;H300A;R849A;H854A)
T1 sequence: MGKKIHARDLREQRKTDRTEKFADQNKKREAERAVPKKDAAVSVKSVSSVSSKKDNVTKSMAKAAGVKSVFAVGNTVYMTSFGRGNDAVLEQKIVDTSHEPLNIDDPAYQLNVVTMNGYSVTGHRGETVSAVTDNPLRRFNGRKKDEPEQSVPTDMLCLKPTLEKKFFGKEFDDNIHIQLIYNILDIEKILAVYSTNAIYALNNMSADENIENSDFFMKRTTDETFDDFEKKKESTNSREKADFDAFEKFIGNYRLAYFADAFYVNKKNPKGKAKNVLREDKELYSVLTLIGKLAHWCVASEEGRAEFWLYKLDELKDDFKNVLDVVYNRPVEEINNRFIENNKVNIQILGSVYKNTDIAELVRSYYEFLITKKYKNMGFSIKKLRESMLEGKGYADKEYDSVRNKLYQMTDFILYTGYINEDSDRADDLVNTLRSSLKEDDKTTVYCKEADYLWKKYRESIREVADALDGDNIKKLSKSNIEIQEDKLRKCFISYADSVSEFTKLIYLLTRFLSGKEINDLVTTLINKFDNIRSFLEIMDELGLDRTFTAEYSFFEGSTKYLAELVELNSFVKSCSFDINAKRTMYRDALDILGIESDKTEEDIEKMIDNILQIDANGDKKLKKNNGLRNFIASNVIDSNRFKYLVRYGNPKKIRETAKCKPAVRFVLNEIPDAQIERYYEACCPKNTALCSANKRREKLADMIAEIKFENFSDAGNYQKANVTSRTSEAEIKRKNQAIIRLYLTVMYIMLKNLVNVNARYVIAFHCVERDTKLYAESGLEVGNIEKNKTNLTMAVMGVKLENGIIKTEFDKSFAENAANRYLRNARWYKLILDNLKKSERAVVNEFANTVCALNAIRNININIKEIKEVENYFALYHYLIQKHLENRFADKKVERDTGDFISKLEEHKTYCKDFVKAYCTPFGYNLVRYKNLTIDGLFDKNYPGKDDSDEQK

B1: target 1 G5C,A18U (mixed)
RNA 1: CACCCGUGCAAAAAUGCAGGGGUCUAAAACUGAGCGGAUAACCUCUCUAUGG
RNA 2: GGGAAUGGAUCCACAUCUACGAAUUCGUACCAUUGAGAGGUUAUCCCCUCACCGAGAUCGGAAGAGCACACGU
B2: target 1 insC 3' of 11,insG 3' of 11 (mixed)
RNA 1: B1 RNA 1
RNA 2: GGGAAUGGAUCCACAUCUACGAAUUCGUACCAUAGAGAGGUCGUAUCCGCUCACCGAGAUCGGAAGAGCACACGU
B3: target 1 insG 3' of 14,insC 3' of 10 (mixed)
RNA 1: B1 RNA 1
RNA 2: B2 RNA 2 with U41G, C42U, G43U, U44C
B4: target 1 C7U,A14U (mixed)
RNA 1: B1 RNA 1
RNA 2: B1 RNA 2 with U34A, A38U, C45U, C47G
B5: target 1 insC 3' of 12,insC 3' of 11 (mixed)
RNA 1: B1 RNA 1
RNA 2: B2 RNA 2 with U41C, C42U, G43C
B6: target 1 C6U,C22A (mixed)
RNA 1: B1 RNA 1
RNA 2: B1 RNA 2 with C30A, U34A, C46U, C47G
B7: target 1 insG 3' of 14,insU 3' of 7 (mixed)
RNA 1: B1 RNA 1
RNA 2: B2 RNA 2 with U41G, C42U, G43U, U44A, A45U, U46C, C47U
B8: target 1 C4A,G12A (mixed)
RNA 1: B1 RNA 1
RNA 2: B1 RNA 2 with U34A, G40A, C47G, C48A
B9: target 1 insU 3' of 13,insA 3' of 10 (mixed)
RNA 1: B1 RNA 1
RNA 2: B2 RNA 2 with G40U, U41G, C42U, G43U, U44A
B10: target 1 del2,del5 (mixed)
RNA 1: B1 RNA 1
RNA 2: GGGAAUGGAUCCACAUCUACGAAUUCGUACCAUAGAGAGGUUAUCCCUACCGAGAUCGGAAGAGCACACGU
B11: target 1 insG 3' of 11,insG 3' of 9 (mixed)
RNA 1: B1 RNA 1
RNA 2: B2 RNA 2 with C42G, G43U, U44A, A45G
B12: target 1 G12A,A16C (mixed)
RNA 1: B1 RNA 1
RNA 2: B1 RNA 2 with U34A, A36C, G40A, C47G
B13: target 1 insG 3' of 14,insU 3' of 6 (mixed)
RNA 1: B1 RNA 1
RNA 2: B2 RNA 2 with U41G, C42U, G43U, U44A, A45U, U46C, C48U
B14: target 1 insG 3' of 10,insU 3' of 9 (mixed)
RNA 1: B1 RNA 1
RNA 2: B2 RNA 2 with C42U, U44A, A45U
B15: target 1 C4U,C6G (mixed)
RNA 1: B1 RNA 1
RNA 2: B1 RNA 2 with U34A, C46G, C47G, C48U
B16: target 1 insA 3' of 19,insU 3' of 18 (mixed)
RNA 1: B1 RNA 1
RNA 2: B2 RNA 2 with G35A, A36U, G40A, U41G, C42G, G43U
B17: target 1 A9C,G17U (mixed)
RNA 1: B1 RNA 1
RNA 2: B1 RNA 2 with U34A, G35U, A43C, C47G
B18: target 1 insC 3' of 17,insG 3' of 8 (mixed)
RNA 1: B1 RNA 1
RNA 2: GGGAAUGGAUCCACAUCUACGAAUUCGUACCAUAGCAGAGGUUAUGCCGCUCACCGAGAUCGGAAGAGCACACGU
B19: target 1 insU 3' of 12,insA 3' of 4 (mixed)
RNA 1: B1 RNA 1
RNA 2: B2 RNA 2 with C42U, G43U, U44A, A45U, U46C, C48G, G49C, C50A
B20: target 1 insG 3' of 1 (mixed)
RNA 1: B1 RNA 1
RNA 2: GGGAAUGGAUCCACAUCUACGAAUUCGUACCAUAGAGAGGUUAUCCGCUCAGCCGAGAUCGGAAGAGCACACGU
B21: target 1 C6A,G15C (mixed)
RNA 1: B1 RNA 1
RNA 2: B1 RNA 2 with U34A, G37C, C46A, C47G
B22: target 1 insC 3' of 14,insA 3' of 5 (mixed)
RNA 1: B1 RNA 1
RNA 2: B18 RNA 2 with C36A, A37G, G38A, A39C, G46C, C48G, G49A
B23: target 1 U11A,A20C (mixed)
RNA 1: B1 RNA 1
RNA 2: B1 RNA 2 with A32C, U34A, U41A, C47G
B24: target 1 insU 3' of 20,insA 3' of 8 (mixed)
RNA 1: B1 RNA 1
RNA 2: B18 RNA 2 with A34U, G35A, C36G, G46A
B25: target 1 C7A,U19A (mixed)
RNA 1: B1 RNA 1
RNA 2: B1 RNA 2 with U33A, U34A, C45A, C47G
B26: target 1 insA 3' of 13,insA 3' of 5 (mixed)
RNA 1: B1 RNA 1
RNA 2: B18 RNA 2 with C36A, A37G, G38A, A39G, G40A, G46C, C48G, G49A
B27: target 1 A16C,C22U (mixed)
RNA 1: B1 RNA 1
RNA 2: B1 RNA 2 with C30U, U34A, A36C, C47G
B28: target 1 insA 3' of 19,insU 3' of 2 (mixed)
RNA 1: B1 RNA 1
RNA 2: B18 RNA 2 with G35A, C36G, G46C, C48G, G49C, C50U, U51C, C52U
B29: target 1 C2G,C7U (mixed)
RNA 1: B1 RNA 1
RNA 2: B1 RNA 2 with U34A, C45U, C47G, C50G
B30: target 1 insU 3' of 18,insU 3' of 13 (mixed)
RNA 1: B1 RNA 1
RNA 2: B2 RNA 2 with G35U, A36G, G37A, A38G, G39A, C42G, G43U
B31: target 1 insA 3' of 6,insU 3' of 6 (mixed)
RNA 1: B1 RNA 1
RNA 2: B2 RNA 2 with C42U, G43A, A45C, U46C, C47A, C48U
B32: target 1 U10C,A20U (mixed)
RNA 1: B1 RNA 1
RNA 2: B1 RNA 2 with A32U, U34A, U42C, C47G

biological target: T1, EsCas13d, nuclease-dead; test: crRNA (strand 1, pre-loaded); Mg2+; 40 mM Tris-HCl pH 7.5, 150 mM NaCl, 6 mM MgCl2, 1 mM DTT, 0.1% Tween-20, 0.2 mg/ml BSA; 25 C; 10 min per concentration, then washed; conditions: tags: His6-TwinStrep-SUMO cleaved; N-terminal SNAP kept (SNAP-Surface 488); label: 3' end held by stalled T7 RNA polymerase

First: B1
Second: B2
The Kd of the first is 1.6-fold lower: 27 ± 4 nM for the first, 42 ± 4 nM for the second.

B3 and B4 are within error of each other in Kd: 47 ± 12 nM for the first, 37 ± 5 nM for the second.

B5 and B6 are within error of each other in Kd: 17 ± 2.8 nM for the first, 15.8 ± 1.4 nM for the second.

Compared with B7, B8 is 3.8-fold lower in Kd: 18.5 ± 1.2 nM for the first, 4.9 ± 0.5 nM for the second. The second binds more tightly here.

Going from B9 to B10, the Kd falls from 26 ± 5 nM to 16.9 ± 1 nM (1.5-fold). The second binds more tightly here.

Compared with B11, B12 is 2.1-fold higher in Kd: 17.2 ± 0.6 nM for the first, 36 ± 3.3 nM for the second. The first binds more tightly here.

Compared with B13, B14 is 2.2-fold lower in Kd: 39 ± 6 nM for the first, 18.1 ± 1.4 nM for the second. The second binds more tightly here.

Compared with B15, B16 is 6.1-fold higher in Kd: 5.28 ± 0.32 nM for the first, 32 ± 1.6 nM for the second. The first binds more tightly here.

B17 and B18 are within error of each other in Kd: 62 ± 23 nM for the first, 58 ± 16 nM for the second.

B19 and B20 are within 1.5-fold of each other in Kd: 6.6 ± 0.8 nM for the first, 9 ± 0.7 nM for the second.

B21 and B22 are within error of each other in Kd: 56 ± 6 nM for the first, roughly 60 nM for the second.

Going from B23 to B24, the Kd falls from 80 ± 40 nM to 25.3 ± 2 nM (3.2-fold). The second binds more tightly here.

Compared with B25, B26 is 14-fold lower in Kd: 48 ± 5 nM for the first, 3.4 ± 0.5 nM for the second. The second binds more tightly here.

First: B27
Second: B28
The Kd of the first is 2.5-fold higher: 57 ± 12 nM for the first, 23 ± 2 nM for the second.

Going from B29 to B30, the Kd rises from 3.82 ± 0.29 nM to 38 ± 14 nM (9.9-fold).

Compared with B31, B32 is 3.4-fold higher in Kd: 28.9 ± 1.4 nM for the first, 99 ± 14 nM for the second.
